Laboratory results: the nanobody polyreactivity screen of Harvey et al. (2022)

Assay: yeast display, Sf9 membrane polyspecificity reagent, FACS + sequencing; frameworks hold sequencing errors
How it was run: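 Genes from sorted yeast were amplified by colony PCR, read by MiSeq 2 × 250 sequencing and filtered on CDR length. These cells carried a synthetic nanobody library in Saccharomyces cerevisiae BJ5465 and were sorted by FACS into low and high (top ~1%) gates on anti-HA and streptavidin fluorescence. Polyreactivity is labelled according to the gate of origin.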

Sequence | polyreactivity (PSR sort gate)
QVQLVESGGGLVQAGGSLRLSCAASGFTLAYNTMGWYRQAPGKERELVASITSSGTSTYYADSVKGRFTISRDNAKNTVYLQMNSLKPPDTAVYYCAASIWLRYHWGYDYWGQGTQVTVSS | high polyreactivity
QVQLVESGGGLVQAGGSLRLSCAASGFTLDPYAMGWYRQAPGKERELVAAIRLSGSSTYYADSVKGRFTISRDNAKNTVYLQMNSLKPEDTAVYYCAADGISHWMYRYDYWGQGTQVTVSS | low polyreactivity
QVQLVESGGGLVQAGGSLRLSCAASGFTLDWYVMGWYRQAPGKERELVAAISSSGGRTYYADSVKGRFTISRDNAKNTVYLQRNSLKPEDTAVYYCAARNKYGGYPYGYDYWGQGTQVTVSS | high polyreactivity
QVQLVESGGGLVQAGGSLRLSCAASGFTLDWYVMGWYRQAPRKERELFAAISSSGGRTYYADSVKGRFTISRDNAKNSVYLQMNSLKPEDTAVYYCAAGTYYRVGRGRRVSFVYWGQGTQVTVSS | high polyreactivity
QVQLVESGGGLVQAGGSLRLSCAASGFTLEFYAMVWYRQAPGKKRELVARITTYGGSTRYADSVKGRFTISRDNAKNTVYLKMNSLKPEDTAVYNCAARGYGYRNVETYGYWGQGTQVTVSS | high polyreactivity
QVQLVESGGGLVQAGGSLRLSCAASGFTLGCYAMGWYRQAPGKERELVAAITRDGSSTYYADSVKGRFTISRDNAKNTVYLQMNRLKPEDTAVYYCAAERKKKYDYWGQGTQVTVSS | high polyreactivity
QVQLVESGGGLVQAGGSLRLSCAASGFTLGRYAKGWYRQAPGKERELVAAISSGGRTYYADSVKGRFTISRDNAKNTVYLQMNSLKPEDTAVYYCAADPRYISYDYWGQGTQVTVSS | low polyreactivity
QVQLVESGGGLVQAGGSLRLSCAASGFTLGRYAMGWYRQAPGKERELVAAITGRGGTTYYADSVKGRFRISRDNAKNTVYLQMNSLKPEDTAVYYCAADTKLSYQWFDYWGQGTQVTVSS | high polyreactivity
QVQLVESGGGLVQAGGSLRLSCAASGFTLGYNAMGWYRQAPGKERQLVAGITWSGGSTSYADSVKGRFTISRDNAKNTVYLQMNSLKPEDTAVYYCAKLRRYSGWLPWPYAYDYWGLGTQVTVSS | high polyreactivity
QVQLVESGGGLVQAGGSLRLSCAASGFTLGYNVMGWYRQAPGKERELVATICWNGARTYYADSVKGRFTISRDTAKNTVYLQMNSLKPEDTAVYYCAARRYYRGEYDYWGQGTQVTVSS | low polyreactivity
QVQLVESGGGLVQAGGSLRLSCAASGFTLGYYAMGWDRQAPGKERELVASISITAGSTYYAVSVMGRLTISRDNAKNTVYLQMNSLKPEDTAVYYCAAKRRTRQSYYTVYYWGQGTQVTVSS | high polyreactivity
QVQLVESGGGLVQAGGSLRLSCAASGFTLHSYAMGWYRQAPWKERELVAAITRSGGGTYYADSVKGRFTISRDNAKNTVYLQMNSLKPEDTAVYYCAARFGGQYQHDYWGQGTQVTVSS | high polyreactivity
QVQLVESGGGLVQAGGSLRLSCAASGFTLIYYAMGWYRQAPGKERELVAGISRGVSTSYADSVMGRFTISRDNAKNTVYLQMNSLKPEDTAVYYCAAEGSPVDQSSIYDYWGQGTQVTVSS | low polyreactivity
QVQLVESGGGLVQAGGSLRLSCAASGFTLKSYAMGWYRQAPGKERELVASISRRGGSTYYADSVKGRFTISRDNAKNTVYLQMNSLKPEDTAVYYCNADYVRYPGNAYDYWGQGTQVTVSS | high polyreactivity
QVQLVESGGGLVQAGGSLRLSCAASGFTLKWYAMGWYRQAPGKERELVAAINDRGGNTYYADSVKGRFTISRDNAKNTVYLQMNSLKPEDTAVYYCAVRGKTYRPYYYWGQGTQVTVSS | high polyreactivity
QVQLVESGGGLVQAGGSLRLSCAASGFTLLGNTMGWSRQAPGKERELVAAIRTNSGRTYYADSVKGRFTISRDNAKNTVYLQMNSLKPEDTAVYYCNAQSYRSDSAYHYNYDYWGQGTQVTVSS | high polyreactivity

Sequence | polyreactivity (PSR sort gate)
QVQLVESGGGLVQAGGSLRLSCAASGFTLLGNTMGWYRQAPGKERELVAAIRTNSGRTYYADSVKGRFTISRDNAKNTVYLQMNSLKPEDTAVYYCAKRYFSYLGREMDYWGQGTQVTVSS | high polyreactivity
QVQLVESGGGLVQAGGSLRLSCAASGFTLLPYAMGWYRQAPGKERELVAAISRRGVSTYYADSVKGRFTISRDNAKNTVYLQMNSLKPEDTAVYYCATRYFTGYGLRPQFYYWGQGSQVTVSS | high polyreactivity
QVQLVESGGGLVQAGGSLRLSCAASGFTLRLNAMGWYRQAPGKARELVAAITRSGGNTYYADSVKGRFTISRDNAKNTVYLEMNSLKPEDSAVYYCAVRQLDRRSPKYNYWGQGTQVTVSS | high polyreactivity
QVQLVESGGGLVQAGGSLRLSCAASGFTLSYYAMGWYRPAPGKEREFVAAIRTSGTSTYYADSVKGRFTISRDNAKNTVYLQMNSLKPEDTAVYYCAVARGSGWYWRSDYWGQGTQVTVSS | high polyreactivity
QVQLVESGGGLVQAGGSLRLSCAASGFTLVYYVMGWYRQAPGKERELVARISRGGSTNYADSVKGRFTISRDNAKNTVYLQMNSLKPEDTAVYYCAARRTSWQGFNYWGQGTQVTVAS | high polyreactivity
QVQLVESGGGLVQAGGSLRLSCAASGFTLYSNTMGWYRQAPGKERELVAAINYSGGSTYYADSVKGRFTISRDNAKNTVYLQMNSLKPQDTAVYYCATDLHWLVTKYGYWGQGTQVTVSS | low polyreactivity
QVQLVESGGGLVQAGGSLRLSCAASGFTRIYAMGWYRQAPGKERELVAAISQRGGRTYYADSVKGRFTISRDNAKNTVYLQMNSLKPEDTAVYYCNADRRSYNYPEYEYDYWGQGTQVTVSS | high polyreactivity
QVQLVESGGGLVQAGGSLRLSCAASGFTRVVSTMGWYRQAPGKERELVATISYTDGSTYYADAVKGRFTISRDNAKNTDYLQMTSLKPEDTADYYCNASYPSSSYSYHVDYWGQGTQVTVSS | low polyreactivity
QVQLVESGGGLVQAGGSLRLSCAASGFTSAPNAMGWYRQAPGKERELVAAITSSTGRTRYADSVKGRFTISRDNAKNTVYLQMNSLKPEDTAVYYCAVKLLFRGTYEYWGQGTQVTVSS | low polyreactivity
QVQLVESGGGLVQAGGSLRLSCAASGFTSGRNTMGWYRQAPGKERELVAAISSSGGRTYYADSVKGRFTISRDNAKKTVYLQKHRLKAEDPAVYYCNVAGAIKRTIGDYEYWGQGTQVTVSS | high polyreactivity
QVQLVESGGGLVQAGGSLRLSCAASGFTSNYYAMGWYRQAPGKERELVAAITTGGSTHYADSVKGRFTISRDNAKNTVYLQMNSLKPEDTAVYYCAAGTNRQQQRYFHPGGYYQYNYWGQGSQVTVSS | low polyreactivity
QVQLVESGGGLVQAGGSLRLSCAASGFTSQYYAMGWYRQAPGKERELVAAITLRDGSTYYADSVKGRFTISRDNAKNTVYLQMNSMKPEDTAVYYCNTDATSDPYGFGYWGQGTQVTVSS | low polyreactivity
QVQLVESGGGLVQAGGSLRLSCAASGFTSRKNAMGWYSQAPGKERELVAAITQSSGRTYYADSVKGRFTISRDNAKNTVYLQMNSLKPEDTAVYYCAARRGGEDDYWGQGTQVTVSS | low polyreactivity
QVQLVESGGGLVQAGGSLRLSCAASGFTSWYAMGWYRQAPGKERELVAAISSGGSTNYADSVKGRFTISRDNAKNTVYLQLNSLKPEDTAVYYCNAEGYETGVPYFGFYFWGQGTQVTVSS | low polyreactivity
QVQLVESGGGLVQAGGSLRLSCAASGFTSYLYTMGWYRQAPGKERELVATITLRGGSTYYADSVKGRFTISRDNAKNTVYLQMNSLKPEDTAVYYCAAPAYLTSHSRYDYWGQGTQVSVSS | high polyreactivity
